From publication PMC5941315

Target: MMP9 full length (UniProt P14780 20-707)
Assay: fluorescence polarization

MMP9 full length, sequence (P14780 20-707): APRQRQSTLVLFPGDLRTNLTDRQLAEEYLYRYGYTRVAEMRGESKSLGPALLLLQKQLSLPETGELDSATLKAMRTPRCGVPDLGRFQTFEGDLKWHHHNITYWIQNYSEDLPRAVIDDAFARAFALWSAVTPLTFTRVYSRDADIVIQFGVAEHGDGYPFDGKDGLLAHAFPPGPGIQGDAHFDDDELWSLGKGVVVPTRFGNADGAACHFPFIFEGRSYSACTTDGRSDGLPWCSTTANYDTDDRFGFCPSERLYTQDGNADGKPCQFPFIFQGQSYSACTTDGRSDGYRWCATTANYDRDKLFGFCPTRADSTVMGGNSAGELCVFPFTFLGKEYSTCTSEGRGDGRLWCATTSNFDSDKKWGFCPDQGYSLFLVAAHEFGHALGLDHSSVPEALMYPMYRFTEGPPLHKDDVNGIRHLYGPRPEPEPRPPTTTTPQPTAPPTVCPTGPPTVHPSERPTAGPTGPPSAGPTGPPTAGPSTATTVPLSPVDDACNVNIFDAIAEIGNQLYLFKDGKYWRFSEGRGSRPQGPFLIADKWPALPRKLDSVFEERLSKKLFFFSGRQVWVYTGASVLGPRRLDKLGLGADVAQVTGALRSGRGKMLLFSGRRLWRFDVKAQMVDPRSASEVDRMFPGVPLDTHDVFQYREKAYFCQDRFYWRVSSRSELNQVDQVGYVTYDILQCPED

ACGCCAATAACGCTATTCGAGCTCGAGACGGCGCGATCTC (ssDNA) [Scrambled 40-mer]: binds.
